The Immune Epitope Database (IEDB)

Legend:
HLA-B*44:02 = assay: IEDB peptide-MHC binding, purified MHC/competitive/radioactivity; filed as Kd, often an IC50 or EC50 that approximates it; ≥ and ≤ were set here for values at or beyond the usual limits of such assays
HLA-B*44:03 = assay: as above
HLA-A*01:01 = assay: as above
HLA-A*23:01 = assay: as above
HLA-A*24:02 = assay: as above
HLA-A*26:01 [1] = assay: as above
HLA-A*29:02 = assay: as above
HLA-A*30:02 = assay: as above
HLA-A*26:01 [2] = assay: IEDB peptide-MHC binding, purified MHC/competitive/fluorescence; filed as Kd, often an IC50 or EC50 that approximates it; ≥ and ≤ were set here for values at or beyond the usual limits of such assays
HLA-A*30:01 = assay: IEDB peptide-MHC binding, purified MHC/competitive/radioactivity; filed as Kd, often an IC50 or EC50 that approximates it; ≥ and ≤ were set here for values at or beyond the usual limits of such assays; settings: source organism: Dengue virus 2 Jamaica/1409/1983
HLA-B*08:01 = assay: as above
HLA-A*32:01 = assay: as above
HLA-A*02:01 = assay: IEDB peptide-MHC binding, purified MHC/competitive/fluorescence; filed as Kd, often an IC50 or EC50 that approximates it; ≥ and ≤ were set here for values at or beyond the usual limits of such assays; settings: source organism: Yersinia pestis Antiqua
[3] = source organism: Dengue virus 3 Martinique/1243/1999
[4] = source organism: Dengue virus 1 Brazil/97-11/1997
[5] = source organism: Lymphocytic choriomeningitis virus (strain Armstrong)
[6] = source organism: Mammarenavirus juninense
[7] = source organism: Dengue virus 4 Philippines/H241/1956
[8] = source organism: Dengue virus 2 Jamaica/1409/1983
[9] = source organism: Mammarenavirus guanaritoense
[10] = source organism: SARS coronavirus Tor2
[11] = source organism: Vaccinia virus WR
[12] = source organism: Mammarenavirus lassaense
[13] = source organism: Mammarenavirus brazilense

For AEMEEALKG, the Kd (HLA-B*44:02; [3]) was 29.7 nM and the Kd (HLA-B*44:03; [3]) was 5.34 nM.
In the case of AEPDDVDCW, the Kd (HLA-B*44:02; [4]) is reported as 37.4 nM and the Kd (HLA-B*44:03; [4]) is reported as 236 nM.
Sequence AFKVPGVKTV has a Kd (HLA-A*01:01; [5]) of at least 70400 nM, a Kd (HLA-A*23:01; [5]) of at least 70000 nM and a Kd (HLA-A*24:02; [5]) of at least 70300 nM. The Kd (HLA-A*26:01 [1]; [5]) was at least 69700 nM, the Kd (HLA-A*29:02; [5]) was 6960 nM and the Kd (HLA-A*30:02; [5]) was 6590 nM.
AGEKALKLSW showed a Kd (HLA-B*44:02; [4]) of 576 nM.
For AGSKYIHCF, the Kd (HLA-A*01:01; [6]) was 808 nM, the Kd (HLA-A*23:01; [6]) was at least 21400 nM and the Kd (HLA-A*24:02; [6]) was 5370 nM. It also gave a Kd (HLA-A*26:01 [1]; [6]) of at least 77900 nM, a Kd (HLA-A*29:02; [6]) of at least 78900 nM and a Kd (HLA-A*30:02; [6]) of 6500 nM.
AWRTIMAVLF was tested, and the Kd (HLA-A*23:01; [7]) was 51.5 nM and the Kd (HLA-A*24:02; [7]) was 22.1 nM.
In the case of CIAIGIITLY, the Kd (HLA-A*01:01; [3]) is reported as 7450 nM, the Kd (HLA-A*26:01 [1]; [3]) is reported as 121 nM and the Kd (HLA-A*30:02; [3]) is reported as at least 69700 nM.
Work on CYSQVNPLTL yielded a Kd (HLA-A*23:01; [4]) of 189 nM and a Kd (HLA-A*24:02; [4]) of 144 nM.
DGLSSVGGY was tested, and the Kd (HLA-A*26:01 [2]; source organism: Azotobacter vinelandii DJ) was at least 20000 nM.
In the case of DTIETLMLLA, the Kd (HLA-A*26:01 [1]; [4]) is reported as 228 nM.
With DTITYKCPLL the Kd (HLA-A*26:01 [1]; [8]) was 2100 nM and the Kd (HLA-A*30:01) was 1140 nM.
For EALKGLPIRY, the Kd (HLA-A*26:01 [1]; [3]) was 10100 nM.
Work on EFFDCFKYIL yielded a Kd (HLA-A*23:01; [9]) of 1690 nM, a Kd (HLA-A*24:02; [9]) of 8700 nM and a Kd (HLA-A*29:02; [9]) of 645 nM.
In the case of EIDETCEHEY, the Kd (HLA-A*01:01; [10]) is reported as 197 nM, the Kd (HLA-A*23:01; [10]) is reported as at least 70000 nM and the Kd (HLA-A*24:02; [10]) is reported as at least 70300 nM. The Kd (HLA-A*26:01 [1]; [10]) was 492 nM, the Kd (HLA-A*29:02; [10]) was 656 nM and the Kd (HLA-A*30:02; [10]) was 1060 nM.
In the case of EKMETLQRKY, the Kd (HLA-A*26:01 [1]; [8]) is reported as at least 20100 nM.
Sequence EKWKKKLNQL has a Kd (HLA-B*08:01; [3]) of 596 nM.
ELSQSMFHY was tested, and the Kd (HLA-A*26:01 [2]; source organism: Bacillus cereus G9241) was 250 nM.
EPGSSFKFL gave a Kd (HLA-B*08:01; [11]) of 1880 nM.
In the case of ETNYYIHPI, the Kd (HLA-A*32:01; [11]) is reported as 368 nM.
Sequence FFLPIFSEF has a Kd (HLA-A*23:01; [9]) of 0.198 nM, a Kd (HLA-A*24:02; [9]) of 32.4 nM and a Kd (HLA-A*29:02; [9]) of 0.921 nM.
FNATKFPSVY gave a Kd (HLA-A*01:01; [10]) of at least 56300 nM, a Kd (HLA-A*23:01; [10]) of at least 70000 nM and a Kd (HLA-A*24:02; [10]) of at least 70300 nM. It also gave a Kd (HLA-A*26:01 [1]; [10]) of at least 24500 nM, a Kd (HLA-A*29:02; [10]) of 3040 nM and a Kd (HLA-A*30:02; [10]) of 1210 nM.
FPRYHSIEL gave a Kd (HLA-B*08:01; [11]) of 0.492 nM.
FYGGWHNML was tested, and the Kd (HLA-A*01:01; [10]) was at least 78100 nM, the Kd (HLA-A*23:01; [10]) was 5180 nM and the Kd (HLA-A*24:02; [10]) was at least 27900 nM. For the same sequence, the Kd (HLA-A*26:01 [1]; [10]) was at least 77900 nM, the Kd (HLA-A*29:02; [10]) was 15500 nM and the Kd (HLA-A*30:02; [10]) was at least 100000 nM.
GPITTLWEGS was tested, and the Kd (HLA-A*32:01; [3]) was 2870 nM.
In the case of GSVGFNIDY, the Kd (HLA-A*01:01; [10]) is reported as 5640 nM, the Kd (HLA-A*23:01; [10]) is reported as at least 77800 nM and the Kd (HLA-A*24:02; [10]) is reported as at least 77600 nM. The Kd (HLA-A*26:01 [1]; [10]) was 10200 nM, the Kd (HLA-A*29:02; [10]) was 177 nM and the Kd (HLA-A*30:02; [10]) was 1660 nM.
Sequence HAQRVESWIL has a Kd (HLA-B*08:01; [7]) of 355 nM.
In the case of HYLCLNCLS, the Kd (HLA-A*01:01; [12]) is reported as 3730 nM, the Kd (HLA-A*26:01 [1]; [12]) is reported as at least 77900 nM and the Kd (HLA-A*30:02; [12]) is reported as 14200 nM.
Work on ISGLFPVSI yielded a Kd (HLA-A*32:01; source organism: Dengue virus 2 Peru/IQT2913/1996) of 1260 nM.
ITEMGRLPTF showed a Kd (HLA-A*01:01; [8]) of 17500 nM and a Kd (HLA-A*30:01) of 9680 nM.
KFLTNKLLL showed a Kd (HLA-A*01:01; [10]) of at least 78100 nM, a Kd (HLA-A*23:01; [10]) of 379 nM and a Kd (HLA-A*24:02; [10]) of 1090 nM. For the same sequence, the Kd (HLA-A*26:01 [1]; [10]) was at least 61000 nM, the Kd (HLA-A*29:02; [10]) was at least 24200 nM and the Kd (HLA-A*30:02; [10]) was at least 27300 nM.
In the case of KRRLRTLIL, the Kd (HLA-B*08:01; [3]) is reported as 1000 nM.
In the case of KTKNNDWDY, the Kd (HLA-A*01:01; [4]) is reported as 595 nM and the Kd (HLA-A*30:02; [4]) is reported as 15 nM.
Work on LEENMDVEIW yielded a Kd (HLA-B*44:02; [4]) of 269 nM and a Kd (HLA-B*44:03; [4]) of 126 nM.
LFVTIYSHL gave a Kd (HLA-A*01:01; [10]) of 3760 nM, a Kd (HLA-A*23:01; [10]) of 9.22 nM and a Kd (HLA-A*24:02; [10]) of 132 nM. The Kd (HLA-A*26:01 [1]; [10]) was 1100 nM, the Kd (HLA-A*29:02; [10]) was 1420 nM and the Kd (HLA-A*30:02; [10]) was at least 47400 nM.
Sequence LIIDEIGYL has a Kd (HLA-A*02:01) of 4.6 nM and a Kd (HLA-A*26:01 [2]; source organism: Yersinia pestis Antiqua) of 4.4 nM.
Work on LMYNLLTII yielded a Kd (HLA-A*32:01; source organism: Vaccinia virus Copenhagen) of 30.2 nM.
LNYVIHKLF showed a Kd (HLA-A*23:01; [13]) of 973 nM, a Kd (HLA-A*24:02; [13]) of 10500 nM and a Kd (HLA-A*29:02; [13]) of 12800 nM.
